Assay results: US20230149556A1, “COMBINATION THERAPY” (ADC Therapeutics SA, priority 2017, published 2023)

Tested on: Ramos cells
Test: In vitro cytotoxicity MTS assay, chequerboard of ADC and rituximab (Example 4)
Type: cell-based
Conditions: single agent
Method: Ramos cells were cultured RPMI 1640 supplemented with 10% Hyclone FBS. The concentration and viability of cells from a sub-confluent (80-90% confluency) T75 flask were measured by trypan blue staining, and counted using the LUNA-II™ Automated Cell Counter. Cells were diluted to 2 x10^5/ml, dispensed (50 µl/well) into 96-well flat-bottom plates. A chequerboard was set up in combining 10-fold dilutions of ADCTx19 or ADCTx22 and 10-fold dilutions of rituximab in RPMI before 50 µl of each dilution was transferred into the 96-well plate containing the cells. This plate was incubated at 37° C. in a CO2-gassed incubator for 4 days. At the end of the incubation period, cell viability was measured by MTS assay. MTS (Promega) was dispensed (20 µl per well) into each well and incubated for 4 hours at 37C in the CO2-gassed incubator. Well absorbance was measured at 490 nm. IC50 was determined from the dose-response data using GraphPad Prism using the non-linear curve fit algorithm: sigmoidal dose-response curve with variable slope.

## Rituximab: anti-CD20 agent, antibody, CAS 174722-31-7
  cytotoxic effect by itself: no significant cytotoxic effect
